Laboratory results published in US20230212319A1, “NOVEL ANTIGEN BINDING DOMAINS AND SYNTHETIC ANTIGEN RECEPTORS INCORPORATING THE SAME” (University of Southern California, priority 2020, published 2023).

Assays:
HepG2 cells = format: cell-based
L363-Luc cells = assay: L363 xenograft in NSG mice; settings: for disease control, L363 xenograft: 0.5 × 10^6 L363-Luc i.v., 3 days later 2 × 10^6 SAR-T i.v., compared to control T cells; for survival, L363 xenograft: mouse, in vivo, iv
THP-1 cells = assay: JNG NFAT-GFP induction on co-culture with THP-1
[1] = JNG NFAT-GFP background GFP induction (tonic signaling)
RAJI cells = assay: JNG assay, co-culture with RAJI cells; format: cell-based; settings: JNG cells expressing construct, co-culture with Raji
Summary of the method: (§1)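 Read-out is NFAT-driven GFP measured by flow cytometry after ~4–18 h co-culture of SAR-expressing JNG cells with target cells (E:T about 1:2). SARs were introduced by lentiviral spinfection and selected with puromycin or blasticidin when possible; scores (+/- to 5+ ≈ 5–50% GFP+) are relative to parental JNG cells.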

L363 cells = assay: JNG assay, co-culture with L363 cells; format: cell-based; settings: co-culture with L363
Summary of the method: as §1

Nalm6 cells = assay: JNG assay, co-culture with Nalm6 cells; format: cell-based; settings: co-culture with Nalm6
Summary of the method: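 Read-out: % GFP-positive cells by flow cytometry after ~4 to 18 h coculture of SAR-transduced JNG cells with targets (E:T about 1:2). Scores reflect GFP induction above parental JNG controls: +/- ≈5%, + ≈10%, up to 5+ ≈50%.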

U266 cells = assay: JNG NFAT-GFP induction on co-culture with U266; format: cell-based
Raji-CD22-KO = assay: JNG NFAT-GFP assay, co-culture with Raji-CD22-KO cells; format: cell-based

Molecule	NFAT-GFP ASSAY: HepG2 (HepG2 cells)	disease control, L363 xenograft (L363-Luc cells)	survival, L363 xenograft (L363-Luc cells)	GFP induction upon co-culture with THP-1 (THP-1 cells)	background GFP induction (tonic signaling) [1]	NFAT-GFP ASSAY: Raji (RAJI cells)	NFAT-GFP ASSAY: L363 (L363 cells)	NFAT-GFP ASSAY: Nalm6 (Nalm6 cells)	NFAT-GFP ASSAY: U266 (U266 cells)	NFAT-GFP ASSAY: Raji-CD22-KO (Raji-CD22-KO)
22256 (protein) MGPRLLFWALLCLLGTGPVEAGVTQSPTHLIKTRGQQATLRCSPISGHTSVYWYQQALGLGLQFLLWYDEGEERNRGNFPPRFSGRQFPNYSSELNVNALELEDSALYLCASSLGGPRGLAGLRGDEQFFGPGTRLTVLEGTGGGGSGGGEFDIQMTQSPSSLSASVGDRVTITCKASDHINNWLAWYQQKPGQAPKLLIYGATTLETGVPSRFSGSGSGTDYTLTISSLQPEDFATYYCQQSWNTPWTFGQGTKLEIKRLEDLKNVFPPEVAVFEPSEAEISHTQKATLVCLATGFYPDHVELSWWVNGKEVHSGVCTDPQPLKEQPALNDSRYCLSSRLRVSATFWQNPRNHFRCQVQFYGLSENDEWTQDRAKPVTQIVSAEAWGRADCGFTSESYQQGVLSATILYEILLGKATLYAVLVSALVLMAMVKRKDSRGRAKRSGSGATNFSLLKQAGDVEENPGPTSATMDWIWRILFLVGAATGAHSGPEVQLVESGGGLVQAGGSLRLSCAASGRTFSMGWFRQAPGKEREFVAAITYSGGSPYYADSVKGRFTISRDNAKNTVYLQMNSLKPEDTAVYYCAANPTYGSDWNAENWGQGTQVTVSSGSGGGGSGGGGSGGGGSFEQVQLQQPGAELVKPGASVKMSCKASGYAFSSYWINWMKQKPGQGLEWIGQIYPGDGDTNYNGKFKGRATLTADTSSSTAYMQLSSLTSEDSAVYFCARSITTVVGCAMDYWGQGTSVTVSSTRIQNPDPAVYQLRDSKSSDKSVCLFTDFDSQTNVSQSKDSDVYITDKCVLDMRSMDFKSNSAVAWSNKSDFACANAFNNSIIPEDTFFPSPESSCDVKLVEKSFETDTNLNFQNLSVIGFRILLLKVAGFNLLMTLRLWSSRAKRSGSGVKQTLNFDLLKLAGDVESNPGPSRGHMTEYKPTVRLATRDDVPRAVRTLAAAFADYPATRHTVDPDRHIERVTELQELFLTRVGLDIGKVWVADDGAAVAVWTTPESVEAGAVFAEIGPRMAELSGSRLAAQQQMEGLLAPHRPKEPAWFLATVGVSPDHQGKGLGSAVVLPGVEAAERAGVPAFLETSAPRNLPFYERLGFTVTADVEVPEGPRTWCMTRKPGA	RAJI (+/-), HepG2 (-/^+)									
21853 (protein) MALPVTALLLPLALLLHAARPSYVLTQPPSVSVAPGQTARITCGGNNIGGKSVHWYQQPPGQAPVVVVYDDSDRPSGIPERFSGSNSGNTATLTISRVEAGDEAVYYCQVWDSSSDHVVFGGGTKLTVLLEDLKNVFPPEVAVFEPSEAEISHTQKATLVCLATGFYPDHVELSWWVNGKEVHSGVCTDPQPLKEQPALNDSRYCLSSRLRVSATFWQNPRNHFRCQVQFYGLSENDEWTQDRAKPVTQIVSAEAWGRADCGFTSESYQQGVLSATILYEILLGKATLYAVLVSALVLMAMVKRKDSRGRAKRSGSGATNFSLLKQAGDVEENPGPTSMDWIWRILFLVGAATGAHSFEQLQLQESGPGLVKPSETLSLTCTVSGGSISSSSYFWGWIRQPPGKGLEWIGSIYYSGITYYNPSLKSRVTISVDTSKNQFSLKLSSVTAADTAVYYCARHDGAVAGLFDYWGQGTLVTVSSATRIQNPDPAVYQLRDSKSSDKSVCLFTDFDSQTNVSQSKDSDVYITDKCVLDMRSMDFKSNSAVAWSNKSDFACANAFNNSIIPEDTFFPSPESSCDVKLVEKSFETDTNLNFQNLSVIGFRILLLKVAGFNLLMTLRLWSS		superior disease control	prolongation of survival	no GFP induction	no background GFP induction					
21852 (protein) MALPVTALLLPLALLLHAARPSYVLTQPPSVSVAPGQTARITCGGNNLGSKSVHWYQQPPGQAPVVVVYDDSDRPSGIPERFSGSNSGNTATLTISRVEAGDEAVYYCQVWDSSSDHVVFGGGTKLTVLLEDLKNVFPPEVAVFEPSEAEISHTQKATLVCLATGFYPDHVELSWWVNGKEVHSGVCTDPQPLKEQPALNDSRYCLSSRLRVSATFWQNPRNHFRCQVQFYGLSENDEWTQDRAKPVTQIVSAEAWGRADCGFTSESYQQGVLSATILYEILLGKATLYAVLVSALVLMAMVKRKDSRGRAKRSGSGATNFSLLKQAGDVEENPGPTSMDWIWRILFLVGAATGAHSFEQLQLQESGPGLVKPSETLSLTCTVSGGSISSGSYFWGWIRQPPGKGLEWIGSIYYSGITYYNPTLKSRVTISVDTSKNQFSLKLSSVTAADTAVYYCARHDGAVAGLFDYWGQGTLVTVSSATRIQNPDPAVYQLRDSKSSDKSVCLFTDFDSQTNVSQSKDSDVYITDKCVLDMRSMDFKSNSAVAWSNKSDFACANAFNNSIIPEDTFFPSPESSCDVKLVEKSFETDTNLNFQNLSVIGFRILLLKVAGFNLLMTLRLWSS		superior disease control	prolongation of survival	no GFP induction	no background GFP induction					
22144 (protein) MALPVTALLLPLALLLHAARPMLPAPKNLVVSRITEDSARLSWTAPDAAFDSFPIRYIETLIWGEAIWLDVPGSERSYDLTGLKPGTEYAVVITGVKGGRFSSPLVASFTTGTGGGGSGGGGSGGGGSEFDIQMTQSPSSLSASVGDRVTITCRASQDISNYLNWYQQKPGKAVKLLIYYTSILHSGVPSRFSGSGSGTDYTLTISSLQPEDFATYFCQQGNTLPWTFGGGTKVEIKLEDLKNVFPPEVAVFEPSEAEISHTQKATLVCLATGFYPDHVELSWWVNGKEVHSGVCTDPQPLKEQPALNDSRYCLSSRLRVSATFWQNPRNHFRCQVQFYGLSENDEWTQDRAKPVTQIVSAEAWGRADCGFTSESYQQGVLSATILYEILLGKATLYAVLVSALVLMAMVKRKDSRGRAKRSGSGATNFSLLKQAGDVEENPGPTSMDWIWRILFLVGAATGAHSFEVQLVESGGGLVKPGGSLKLSCAASGFAFSIYDMSWVRQAPGKGLEWVAYISSGGGTTYYPDTVKGRFTISRDNAKNTLYLQMSSLRAEDTAMYYCARHSGYGSSYGVLFAYWGQGTLVTVSSTRIQNPDPAVYQLRDSKSSDKSVCLFTDFDSQTNVSQSKDSDVYITDKCVLDMRSMDFKSNSAVAWSNKSDFACANAFNNSIIPEDTFFPSPESSCDVKLVEKSFETDTNLNFQNLSVIGFRILLLKVAGFNLLMTLRLWSSRAKRSGSGVKQTLNFDLLKLAGDVESNPGPSRGHMTEYKPTVRLATRDDVPRAVRTLAAAFADYPATRHTVDPDRHIERVTELQELFLTRVGLDIGKVWVADDGAAVAVWTTPESVEAGAVFAEIGPRMAELSGSRLAAQQQMEGLLAPHRPKEPAWFLATVGVSPDHQGKGLGSAVVLPGVEAAERAGVPAFLETSAPRNLPFYERLGFTVTADVEVPEGPRTWCMTRKPGA						+ (refer to approximately 5%, 10%, 20%, 30%, 40% and 50% GFP positive cells)	+ (refer to approximately 5%, 10%, 20%, 30%, 40% and 50% GFP positive cells)	+/- (refer to approximately 5%, 10%, 20%, 30%, 40% and 50% GFP positive cells)	3+ (refer to approximately 5%, 10%, 20%, 30%, 40% and 50% GFP positive cells)	+/- (refer to approximately 5%, 10%, 20%, 30%, 40% and 50% GFP positive cells)
22146 (protein) MALPVTALLLPLALLLHAARPACEVQLLESGGGLIQPGGSLRLSCAASGFTFSSHAMTWVRQAPGKGLEWVSAISGSGDYTHYADSVKGRFTISRDNSKNTVYLQMNSLRAEDSAVYYCAKDEDGGSLLGHRGQGTLVTVSSGTGGGGSGGGGSGGGGSEFDIQMTQSPSSLSASVGDRVTITCRASQDISNYLNWYQQKPGKAVKLLIYYTSILHSGVPSRFSGSGSGTDYTLTISSLQPEDFATYFCQQGNTLPWTFGGGTKVEIKLEGQPKANPTVTLFPPSSEELQANKATLVCLISDFYPGAVTVAWKADGSPVKAGVETTKPSKQSNNKYAASSYLSLTPEQWKSHRSYSCQVTHEGSTVEKTVAPTECSGRADCGFTSESYQQGVLSATILYEILLGKATLYAVLVSALVLMAMVKRKDSRGRAKRSGSGATNFSLLKQAGDVEENPGPTSATMDWIWRILFLVGAATGAHSGPQVQLQESGGGLAQAGGSLRLSCAASGRTFSMGWFRQAPGKEREFVAAITYSGGSPYYASSVRGRFTISRDNAKNTVYLQMNSLKPEDTAVYYCAANPTYGSDWNAENWGQGTQVTVSSGSGGGGSGGGGSGGGGSFEVQLVESGGGLVKPGGSLKLSCAASGFAFSIYDMSWVRQAPGKGLEWVAYISSGGGTTYYPDTVKGRFTISRDNAKNTLYLQMSSLRAEDTAMYYCARHSGYGSSYGVLFAYWGQGTLVTVSSTRASTKGPSVFPLAPSSKSTSGGTAALGCLVKDYFPEPVTVSWNSGALTSGVHTFPAVLQSSGLYSLSSVVTVPSSSLGTQTYICNVNHKPSNTKVDKRVEPKSCIPEDTFFPSPESSCDVKLVEKSFETDTNLNFQNLSVIGFRILLLKVAGFNLLMTLRLWSSRAKRSGSGVKQTLNFDLLKLAGDVESNPGPSRGHMTEYKPTVRLATRDDVPRAVRTLAAAFADYPATRHTVDPDRHIERVTELQELFLTRVGLDIGKVWVADDGAAVAVWTTPESVEAGAVFAEIGPRMAELSGSRLAAQQQMEGLLAPHRPKEPAWFLATVGVSPDHQGKGLGSAVVLPGVEAAERAGVPAFLETSAPRNLPFYERLGFTVTADVEVPEGPRTWCMTRKPGA						2+ (refer to approximately 5%, 10%, 20%, 30%, 40% and 50% GFP positive cells)	+ (refer to approximately 5%, 10%, 20%, 30%, 40% and 50% GFP positive cells)	+/- (refer to approximately 5%, 10%, 20%, 30%, 40% and 50% GFP positive cells)	2+ (refer to approximately 5%, 10%, 20%, 30%, 40% and 50% GFP positive cells)	3+ (refer to approximately 5%, 10%, 20%, 30%, 40% and 50% GFP positive cells)
